Values belong to the molecule of their own block, whether it stands above or below them.
Columns and labels:
[1] = target: T1, Recombinant human ERα (human, UniProt P03372 1-595)
T1 construct: recombinant human ERα, bought; also called recombinant hERα; source: bought: Life Technologies
T1 sequence (looked up): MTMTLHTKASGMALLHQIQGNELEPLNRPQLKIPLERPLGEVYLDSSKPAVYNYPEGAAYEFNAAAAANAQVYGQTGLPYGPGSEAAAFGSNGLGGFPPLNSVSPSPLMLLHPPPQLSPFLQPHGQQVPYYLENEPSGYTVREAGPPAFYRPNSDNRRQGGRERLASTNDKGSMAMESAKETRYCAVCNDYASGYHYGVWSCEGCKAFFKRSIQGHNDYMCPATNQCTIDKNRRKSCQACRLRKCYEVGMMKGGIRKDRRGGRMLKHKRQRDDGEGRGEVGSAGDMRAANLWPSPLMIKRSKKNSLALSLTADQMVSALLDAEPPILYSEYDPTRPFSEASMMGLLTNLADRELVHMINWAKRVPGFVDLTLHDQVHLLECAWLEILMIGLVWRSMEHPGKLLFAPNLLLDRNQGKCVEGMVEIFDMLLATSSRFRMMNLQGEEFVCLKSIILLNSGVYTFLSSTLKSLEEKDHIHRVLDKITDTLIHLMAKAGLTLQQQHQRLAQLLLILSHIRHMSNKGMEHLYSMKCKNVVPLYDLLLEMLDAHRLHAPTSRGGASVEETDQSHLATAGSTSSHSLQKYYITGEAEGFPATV

[2] = target: T1, Recombinant human ERα; assay: pull-down; competition screening: MBP-Tab2(406–531) and recombinant hERα (1 nM) with or without in vitro translated fragments of Tab2(406–531); the pair that is blocked; details: both partners purified
[3] = target: T1, Recombinant human ERα; assay: pull-down; competition: 10 μg MBP-Tab2(406–531) preincubated 1 h at 4°C with synthetic Tab2 peptides (10 μM each, or Tab2-pept3 100 nM to 10 μM), then recombinant hERα (1 nM) 1.5 h at 4°C, amylose resin, immunoblot; details: both partners purified

- proliferation (bromo-deoxyuridine incorporation) of MCF7 TamR cells in 1 μM 4OHT, peptide 1 to 100 μM, 24 h; the peptide is meant to interfere with Tab2/ERα [1]: 50 to 70 µM
Molecule: TAT-Tab2-pept3 (from UniProt Q9NYJ8 480-496) (peptide)

- binding result [2]: binds
B1: MBP-Tab2(406–531) (domain or fragment, human, UniProt Q9NYJ8 406-531, looked up)
chain: TLFISTNSGASAASRNMSGQVSMGPAFIHHHPPKSRAIGNNSATSPRVVVTQPNTKYTFKITVSPNKPPAVSPGVVSPTFELTNLLNHPDHYVETENIQHLTDPTLAHVDRISETRKLSMGSDDAA
notes: human Tab2, aa 406–531 (central domain); also called MBP-406-531Tab2; 406-531Tab2; source: bacteria, purified MBP fusion (pMALc2)

- binding result [3]: binds
B2: Tab2-pept3 (peptide, UniProt Q9NYJ8 480-496, looked up)
peptide: VVSPTFELTNLLNHPDH
notes: 17-aa synthetic peptide mimicking aa; 480–496 of human Tab2, a portion of Fragment 4; includes the LTNLL motif; also called Tab2 mimic peptide; SRID peptide; source: synthetic peptide (microwave-assisted synthesis, RP-HPLC purified)

Reference: PMC5167418, “A Novel Functional Domain of Tab2 Involved in the Interaction with Estrogen Receptor Alpha in Breast Cancer Cells” (PLoS ONE, 2016)
